B1: Lysine-specific demethylase 5B (Homo sapiens), Q9UGL1 (parent)
chain: MEAATTLHPGPRPALPLGGPGPLGEFLPPPECPVFEPSWEEFADPFAFIHKIRPIAEQTGICKVRPPPDWQPPFACDVDKLHFTPRIQRLNELEAQTRVKLNFLDQIAKYWELQGSTLKIPHVERKILDLFQLNKLVAEEGGFAVVCKDRKWTKIATKMGFAPGKAVGSHIRGHYERILNPYNLFLSGDSLRCLQKPNLTTDTKDKEYKPHDIPQRQSVQPSETCPPARRAKRMRAEAMNIKIEPEETTEARTHNLRRRMGCPTPKCENEKEMKSSIKQEPIERKDYIVENEKEKPKSRSKKATNAVDLYVCLLCGSGNDEDRLLLCDGCDDSYHTFCLIPPLHDVPKGDWRCPKCLAQECSKPQEAFGFEQAARDYTLRTFGEMADAFKSDYFNMPVHMVPTELVEKEFWRLVSTIEEDVTVEYGADIASKEFGSGFPVRDGKIKLSPEEEEYLDSGWNLNNMPVMEQSVLAHITADICGMKLPWLYVGMCFSSFCWHIEDHWSYSINYLHWGEPKTWYGVPGYAAEQLENVMKKLAPELFVSQPDLLHQLVTIMNPNTLMTHEVPVYRTNQCAGEFVITFPRAYHSGFNQGFNFAEAVNFCTVDWLPLGRQCVEHYRLLHRYCVFSHDEMICKMASKADVLDVVVASTVQKDMAIMIEDEKALRETVRKLGVIDSERMDFELLPDDERQCVKCKTTCFMSAISCSCKPGLLVCLHHVKELCSCPPYKYKLRYRYTLDDLYPMMNALKLRAESYNEWALNVNEALEAKINKKKSLVSFKALIEESEMKKFPDNDLLRHLRLVTQDAEKCASVAQQLLNGKRQTRYRSGGGKSQNQLTVNELRQFVTQLYALPCVLSQTPLLKDLLNRVEDFQQHSQKLLSEETPSAAELQDLLDVSFEFDVELPQLAEMRIRLEQARWLEEVQQACLDPSSLTLDDMRRLIDLGVGLAPYSAVEKAMARLQELLTVSEHWDDKAKSLLKARPRHSLNSLATAVKEIEEIPAYLPNGAALKDSVQRARDWLQDVEGLQAGGRVPVLDTLIELVTRGRSIPVHLNSLPRLETLVAEVQAWKECAVNTFLTENSPYSLLEVLCPRCDIGLLGLKRKQRKLKEPLPNGKKKSTKLESLSDLERALTESKETASAMATLGEARLREMEALQSLRLANEGKLLSPLQDVDIKICLCQKAPAAPMIQCELCRDAFHTSCVAVPSISQGLRIWLCPHCRRSEKPPLEKILPLLASLQRIRVRLPEGDALRYMIERTVNWQHRAQQLLSSGNLKFVQDRVGSGLLYSRWQASAGQVSDTNKVSQPPGTTSFSLPDDWDNRTSYLHSPFSTGRSCIPLHGVSPEVNELLMEAQLLQVSLPEIQELYQTLLAKPSPAQQTDRSSPVRPSSEKNDCCRGKRDGINSLERKLKRRLEREGLSSERWERVKKMRTPKKKKIKLSHPKDMNNFKLERERSYELVRSAETHSLPSDTSYSEQEDSEDEDAICPAVSCLQPEGDEVDWVQCDGSCNQWFHQVCVGVSPEMAEKEDYICVRCTVKDAPSRK
partner: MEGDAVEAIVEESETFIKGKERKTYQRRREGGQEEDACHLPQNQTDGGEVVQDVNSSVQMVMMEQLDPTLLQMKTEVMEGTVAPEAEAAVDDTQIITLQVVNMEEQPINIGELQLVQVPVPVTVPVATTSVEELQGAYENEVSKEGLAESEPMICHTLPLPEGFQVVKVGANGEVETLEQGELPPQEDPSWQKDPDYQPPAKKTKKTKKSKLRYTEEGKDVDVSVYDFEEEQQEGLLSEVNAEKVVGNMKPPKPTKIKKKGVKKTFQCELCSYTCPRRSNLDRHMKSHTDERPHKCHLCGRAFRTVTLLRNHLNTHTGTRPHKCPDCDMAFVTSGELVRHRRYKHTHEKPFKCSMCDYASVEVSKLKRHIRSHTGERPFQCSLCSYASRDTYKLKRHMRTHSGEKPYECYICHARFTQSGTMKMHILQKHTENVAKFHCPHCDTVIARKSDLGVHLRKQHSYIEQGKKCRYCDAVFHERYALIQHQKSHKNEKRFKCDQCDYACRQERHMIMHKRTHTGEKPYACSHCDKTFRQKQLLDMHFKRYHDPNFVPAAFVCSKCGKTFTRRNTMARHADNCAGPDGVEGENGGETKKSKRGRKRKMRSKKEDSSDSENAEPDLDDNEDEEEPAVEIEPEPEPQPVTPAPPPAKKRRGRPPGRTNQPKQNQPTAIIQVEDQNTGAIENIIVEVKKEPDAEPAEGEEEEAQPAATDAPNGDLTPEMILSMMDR

Variants of: B1
Conditions: with ctcf_human CTCF

effect of a mutation on the interaction	Variant
decreasing interaction strength	K1435R
